Data on one molecule can be found in US20190389973A1 (Y BIOLOGICS, published 2019).

The target of one assay is VEGFA. The assay can be described thus: ELISA on coated VEGFA. On the procedure: (§1) The affinity of Fv2mabs consisting of the tandem Fv combinations of anti-TNF-α and anti-VEGFA; and anti-TNF-α and anti-IL17A was measured by using ELISA method. Antigens such as TNF-α, VEGFA, and IL-17A, were fixed on an immune-plate at a concentration of 100 ng/well (96 well) by using pH 7.4 PBS as a coating buffer through a reaction at 4° C. overnight. Each well was once washed with PBST 200 μl, and then a surface blocking reaction was performed at room temperature with 5% skim milk for one to two hours. Subsequently, after washing each well twice with PBST 200 μl, a serial dilution was performed with an appropriate bispecific Fv2mab to measure and a control parental antibody from an appropriate concentration in an interval of ½ to ⅕ for a reaction at room temperature for one to two hours. Then, each well was washed three times with PBST 200 μl to remove unbound antibodies, and a dilution was performed with horseradish peroxidase (HRP)-conjugated anti-human-Fc-HRP (Millipore, USA) at a ratio of 1:3000 for a reaction at room temperature for one hour. Then, each well was washed three times with PBST 200 μl to remove unbound detection antibodies. A color reaction of HRP was induced by using TMB solution (GEhealthcare, USA) in a volume of […], and the reaction was terminated by using a stop solution (2.5 M H2SO4, 100 μl/well).
Chain of VEGFA (P15692 whole entry): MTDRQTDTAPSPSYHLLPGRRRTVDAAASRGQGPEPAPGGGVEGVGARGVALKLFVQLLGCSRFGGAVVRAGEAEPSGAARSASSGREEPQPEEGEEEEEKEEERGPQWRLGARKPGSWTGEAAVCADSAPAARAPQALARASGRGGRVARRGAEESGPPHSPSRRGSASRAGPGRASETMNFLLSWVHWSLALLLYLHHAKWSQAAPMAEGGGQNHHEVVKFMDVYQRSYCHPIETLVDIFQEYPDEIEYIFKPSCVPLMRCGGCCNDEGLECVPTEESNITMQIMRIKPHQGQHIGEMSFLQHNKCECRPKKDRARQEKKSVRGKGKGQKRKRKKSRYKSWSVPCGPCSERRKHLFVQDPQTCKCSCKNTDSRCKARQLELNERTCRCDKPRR
In general terms: In an ELISA, binding on a coated surface is turned into a signal by an enzyme label.

The next assay concerns the target T1, TNF-α (UniProt P01375 77-233).
T1 construct: Soluble antigen used as analyte in the OCTET assay and coated in ELISA; also called TNF-a
The assay can be described thus: ELISA on coated TNF-α. Here is the method: as §1

T1 sequence (P01375 77-233 limits assumed): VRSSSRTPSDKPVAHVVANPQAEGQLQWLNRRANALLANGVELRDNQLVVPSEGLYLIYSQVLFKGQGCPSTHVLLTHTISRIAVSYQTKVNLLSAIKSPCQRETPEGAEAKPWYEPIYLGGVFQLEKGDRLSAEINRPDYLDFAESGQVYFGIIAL

B1: anti-VEGFA AB (antibody, V domains shown)
VH: QVTLKESGPTMVKPTQTLTLTCTFSGFSLSTSGVAVGWIRQPPGQALEWLALIYWDNDKRYSPSLKNRLTVAKDTSKSQVVLTMTNMDPMDTATYYCAHGDGWLFDFWGQGTLVTVSS
VL: QPVLTQPPSVSGAPGQRVTISCTGSNSNIGAGHDVHWYQQLPGAAPKVVIYGNTNRASGVPERFSGSKSATSASLAITGLQAEDEADYYCQSYDNSLSGYVFGTGTKVTVL
notes: The sheet calls it 'parantal antibody'; also called anti-VEGFA antibody; F6 (in-house)
For orientation: EC50 (read off the curve) means the concentration that produces a half-maximal response. Consider B1, for which the “EC50 (read off the curve)” value with VEGFA is roughly 0.3 nM. Besides, the binding result in the assay with TNF-α was “binds”.
